The source of these data is patent US20100285988A1.

Read-outs that look alike come from different tables or passages of the source.

The target in experiment [1] is T1, γ-secretase (human; HeLa cell membrane / solubilized HeLa membrane; endogenous in HEK293 cells) (human), P49768. The conditions noted are these: modification not given.
Experiment [2] deals with T1, γ-secretase (human; HeLa cell membrane …). The conditions noted are these: modification not given. This is another data set of the same source.

For orientation: IC50 means the midpoint of a concentration-inhibition curve. Low readings indicate greater potency in that assay, high ones weaker potency in that assay. KLVFFAED showed an IC50 in experiment [1] of 14 µM. For the molecule LVFFAEDV, the IC50 in experiment [2] worked out at 8.9 µM.
